Read-outs that look alike come from different tables or passages of the source.
T1: Cyno PVRIG expressed on HEK293 cells (cynomolgus monkey)
T1 construct: also called native Cyno PVRIG
T1 chain: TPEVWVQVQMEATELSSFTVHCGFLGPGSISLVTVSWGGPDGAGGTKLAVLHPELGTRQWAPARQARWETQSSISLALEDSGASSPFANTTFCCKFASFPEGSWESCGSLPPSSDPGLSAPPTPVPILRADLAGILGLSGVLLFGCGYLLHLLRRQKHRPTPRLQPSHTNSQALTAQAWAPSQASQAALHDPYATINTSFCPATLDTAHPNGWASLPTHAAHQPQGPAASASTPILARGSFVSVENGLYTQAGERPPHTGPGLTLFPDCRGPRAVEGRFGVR

T2: human PVRIG expressed on cells (human, UniProt Q6DKI7 41-326)
T2 construct: Jurkat cells engineered to express human PVRIG; also called hPVRIG-Jurkat; native human PVRIG
T2 sequence: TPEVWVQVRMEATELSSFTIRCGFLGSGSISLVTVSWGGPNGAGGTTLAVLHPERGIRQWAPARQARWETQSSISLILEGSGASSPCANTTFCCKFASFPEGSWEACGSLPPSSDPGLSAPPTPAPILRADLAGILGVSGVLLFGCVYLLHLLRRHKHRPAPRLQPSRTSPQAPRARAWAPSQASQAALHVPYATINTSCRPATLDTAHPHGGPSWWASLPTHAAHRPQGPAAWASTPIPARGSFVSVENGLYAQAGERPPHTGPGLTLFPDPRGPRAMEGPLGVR

T3: hPVRIG-ECD-his (human, UniProt Q6DKI7 41-171)
T3 construct: Acrobiosystems PVG-H52H4; also called hPVRIG-His; human PVRIG-His; not shown: His tag
T3 sequence: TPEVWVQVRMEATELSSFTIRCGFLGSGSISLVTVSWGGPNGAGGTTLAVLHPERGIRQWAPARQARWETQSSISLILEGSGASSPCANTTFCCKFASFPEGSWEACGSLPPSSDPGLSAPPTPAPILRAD

T4: human PVRIG recombinant protein (human, UniProt Q6DKI7 41-171)
T4 construct: also called human PVRIG protein; recombinant human antigen PVRIG
T4 sequence: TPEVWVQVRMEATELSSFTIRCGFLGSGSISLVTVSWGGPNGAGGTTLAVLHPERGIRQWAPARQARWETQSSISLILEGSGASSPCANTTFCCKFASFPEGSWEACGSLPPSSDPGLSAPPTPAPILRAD


Assays:
[1] = biological target: T1, Cyno PVRIG expressed on HEK293 cells; test: flow cytometry on 293T cells expressing cyno PVRIG, anti-hFc-AF647 detection
[2] = biological target: T2, human PVRIG expressed on cells; test: flow cytometry on Jurkat cells expressing human PVRIG, anti-hFc-AF647 detection
Experimental: (§1) To evaluate the binding activity of anti-PVRIG antibodies to native human PVRIG on living cells, Jurkat cells were engineered to express human PVRIG. Jurkat cells expressing human PVRIG were seeded in 96 well plates, and were incubated with serially diluted anti-PVRIG antibodies. […] EC50 values for dose dependent binding to human native PVRIG were determined by fitting the dose response data to the four-parameter logistic model with GraphPad Prism™.

hPVRIG-ECD-his [3] = biological target: T3, hPVRIG-ECD-his; test: blocking ELISA: hPVRIG-His coated, antibody mixed with PVRL2-biotin at 1 ug/mL; % inhibition of PVRL2 binding
[4] = biological target: T4, human PVRIG recombinant protein; test: SPR, antibody captured via anti-human Fc, human PVRIG analyte
Description: For affinity determination, antibodies were captured by anti-human Fc antibodies, and used in the affinity determination based on surface plasmon resonance (SPR) technology.

[5] = biological target: T4, human PVRIG recombinant protein; test: as above; remark: listed apart in the source
Description: For affinity determination, antibodies were captured by anti-human Fe antibodies, and used in the affinity assay based on surface plasmon resonance (SPR) technology. […] Rmax represents the maximal feasible SPR signal generated by an interaction between a ligand-analyte pair and is represented in response units (RU).

[6] = biological target: T2, human PVRIG expressed on cells; test: flow cytometry on Jurkat cells expressing human PVRIG, anti-hFc-AF647 detection; remark: listed apart in the source
Experimental: as §1, with “native” for “native human”

hPVRIG-ECD-his [7] = biological target: T3, hPVRIG-ECD-his; test: blocking ELISA: hPVRIG-His coated, antibody mixed with PVRL2-biotin at 1 ug/mL; % inhibition of PVRL2 binding; remark: listed apart in the source
[8] = biological target: T4, human PVRIG recombinant protein; test: SPR, antibody captured via anti-human Fc, human PVRIG analyte; remark: listed apart in the source
Description: For affinity determination, anti-PVRIG antibodies were captured by anti-human Fc antibodies, and used in the affinity assay based on surface plasmon resonance (SPR) technology.

[9] = biological target: T1, Cyno PVRIG expressed on HEK293 cells; test: flow cytometry on HEK293 cells expressing cyno PVRIG, anti-hFc-647 detection [panel B]
Experimental: as §1, with “Cyno” for “human”, “cells. HEK293” for “cells, Jurkat”, “HEK293” for “Jurkat”, “transfected with Cyno” for “expressing human”, “plates” for “plates,”, “a serial dilution of” for “serially diluted”

[10] = biological target: T2, human PVRIG expressed on cells; test: flow cytometry on Jurkat cells expressing human PVRIG, anti-hFc-647 detection [panel B]
Experimental: as §1, with “native” for “native human”, “expressing” for “expressing human”, “plates” for “plates,”

hPVRIG-ECD-his [11] = biological target: T3, hPVRIG-ECD-his; test: competition ELISA, antibody against PVRL2 on coated human PVRIG
[12] = biological target: T2, human PVRIG expressed on cells; test: FACS on human PVRIG-expressing cells
[13] = biological target: T4, human PVRIG recombinant protein; test: ELISA, chimeric antibody on recombinant human PVRIG
[14] = biological target: T4, human PVRIG recombinant protein; test: SPR, antibody captured via anti-human Fc, human PVRIG analyte; remark: listed apart in the source
Experimental: Chimeric anti-PVRIG antibodies were generated in human IgG1 format and characterized for binding kinetics by surface plasmon resonance (SPR) assays using BIAcore™ T-200 (GE Life Sciences). […] Then a serial dilution of human or Cyno PVRIG protein was flowed over the chip surface and changes in surface plasmon resonance signals were analyzed to calculate the association rates (kₒₙ) and dissociation rates (koff) by using the one-to-one Langmuir binding model (BIA Evaluation Software, GE Life Sciences). The equilibrium dissociation constant (KD) was calculated as the ratio koff/kₒₙ.

EC50 (read off the curve) [1] [µg/mL] | EC50 (read off the curve) [2] [µg/mL] | IC50 (read off the curve) (hPVRIG-ECD-his [3]) [µg/mL] | Kd [4] [nM] | koff [4] [s⁻¹] | kon [4] [M⁻¹ s⁻¹] | Kd [5] [nM] | koff [5] [s⁻¹] | kon [5] [M⁻¹ s⁻¹] | EC50 (read off the curve) [6] [µg/mL] | IC50 (read off the curve) (hPVRIG-ECD-his [7]) [µg/mL] | Binder | other results
~0.007 | ~0.01 | ~0.8 | 0.12 | 0.000438 | 3.66e+06 | – | – | – | – | – | BGA503 (antibody, V domains shown, Humanized BGA50) VH: QVQLVQSGAEVKKPGASVKVSCKASGYSFTGYFLNWVRQAPGQGLEWIGRISPYQGDTFYNQKFKGRVTMTVDKSTSTAYMELRSLRSDDTAVYYCGRSGSFTLFYALDYWGQGTLVTVSS VL: DIVMTQSPSSLAVSLGERATINCKSSQSLFHSGNQKNYLAWYQQKPGQSPKLLIYWASTRESGVPDRFSGSGSGTDFTLTISSLQAEDVAVYYCQQYYSYPITFGQGTKLEIK | –
~0.01 | ~0.01 | ~1 | 0.136 | 0.000436 | 3.21e+06 | – | – | – | – | – | BGA501 (antibody, V domains shown, Humanized BGA50; also called BGA501-WT) VH: QVQLVQSGAEVKKPGASVKVSCKASGYSFTGYFLNWVRQAPGQGLEWIGRISPYQGDTFYNQKFKGRVTMTTDKSTSTAYMELRSLRSDDTAVYYCGRSGSFTLFYAIDYWGQGTLVTVSS VL: DIVMTQSPSSLAVSLGERATINCKSSQSLFHSGNQKNYLAWYQQKPGQSPKLLIYWASTRESGVPDRFSGSGSGTDFTLTISSLQAEDVAVYYCQQYYSYPITFGQGTKLEIK | –

More lines, now with the values behind:

Binder | EC50 (read off the curve) [1] [µg/mL] | EC50 (read off the curve) [2] [µg/mL] | IC50 (read off the curve) (hPVRIG-ECD-his [3]) [µg/mL] | Kd [4] [nM] | koff [4] [s⁻¹] | kon [4] [M⁻¹ s⁻¹] | Kd [5] [nM] | koff [5] [s⁻¹] | kon [5] [M⁻¹ s⁻¹] | EC50 (read off the curve) [6] [µg/mL] | IC50 (read off the curve) (hPVRIG-ECD-his [7]) [µg/mL] | other results
BGA502 (antibody, V domains shown, Humanized BGA50) VH: QVQLVQSGAEVKKPGASVKVSCKASGYSFTGYFLNWVRQAPGQGLEWIGRISPYQGDTFYNQKFKGRVTMTTDKSTSTAYMELRSLRSDDTAVYYCGRSGSFTLFYALDYWGQGTLVTVSS VL: DIVMTQSPSSLAVSLGERATINCKSSQSLFHSGNQKNYLAWYQQKPGQSPKLLIYWASTRESGVPDRFSGSGSGTDFTLTISSLQAEDVAVYYCQQYYSYPITFGQGTKLEIK | ~0.007 | ~0.01 | ~1 | 0.103 | 0.000486 | 4.71e+06 | – | – | – | – | – | –
BGA121 (antibody, V domains shown, Humanized BGA12) VH: QVQLVQSGAEVKKPGASVKVSCKASGYTFTDYAMHWVRQAPGQSLEWMGVVLTHNDNTNYNQKFKARVTMTVDTSASTAYMELSSLRSEDTAVYYCAREVYYDFDDGNYFPMDYWGQGTLVTVSS VL: not shown | – | – | – | – | – | – | 0.0524 | 0.00122 | 2.33e+07 | ~0.007 | ~0.6 | –
BGA122 (antibody, V domains shown, Humanized BGA12; also called BGA122-WT) VH: QVQLVQSGAEVKKPGASVKVSCKASGYTFTDYAMHWVRQAPGQSLEWMGVVLTHNDNTNYNQKFKARVTMTVDTSASTAYMELSSLRSEDTAVYYCAREVYYDFDDGNYFPMDYWGQGTLVTVSS VL: not shown | – | – | – | – | – | – | 0.0488 | 0.00199 | 4.09e+07 | ~0.007 | ~0.6 | –
BGA383 (antibody, V domains shown, Humanized BGA38) VH: EVQLVQSGAEVKKPGASVKVSCKASGYTFTDYWIYWVRQAPGQGLEWMGTIDTSDAKTSYNQKFRGRVTMTRDTSTSTVYMELSSLRSEDTAVYYCARDFIITVNYPVVDYWGQGTLVTVSS VL: QIVLTQSPATLSLSPGERATLSCSAGSSVNYMHWFQQKPGQAPRLLIYSTSNLASGVPARFSGSGSGTDYTLTISSLEPEDFAVYYCQQRSSLPFTFGQGTKLEIK | – | – | – | – | – | – | – | – | – | – | – | Kd [8]: 0.0998 nM; koff [8]: 0.000649 s⁻¹; kon [8]: 6.51e+06 M⁻¹ s⁻¹; EC50 (read off the curve) [9]: ~0.04 µg/mL; EC50 (read off the curve) [10]: ~0.03 µg/mL
BGA50 (antibody, V domains shown, also called BGA50-WT) VH: EVQLQQSGPEPVKPGASVKISCKASGYSFTGYFLNWVKQSHGKSLEWIGRISPYNGDTFYNQKFKGKATLTVDKSSSTAHMELLSLTSEDSAVYYCGRSGSFTLFYAMDYWGQGTSVTVSS VL: DIVMSQSPSSLAVSVGENITMTCKSSQSLFHSGNQKNYLAWYQQKPGQSPKLLIYWASTRESGVPDRFTGSGSETDFTLTISSVKAEDLAVYFCQQYYSYPITFGAGTKLELK | ~0.02 | ~0.03 | ~1 | 0.0907 | 0.000519 | 5.72e+06 | – | – | – | – | – | IC50 (hPVRIG-ECD-his [11]): 1.09 nM; PVRIG/PVRL2 blocking Emax (% Inhibition) (hPVRIG-ECD-his [11]): 95.3%; EC50 [12]: 0.273 nM; binding Emax (MFI) [12]: 2610 MFI; EC50 [13]: 0.105 nM; Kd [14]: 0.147 nM; koff [14]: 0.000652 s⁻¹; kon [14]: 4.45e+06 M⁻¹ s⁻¹
BGA12 (antibody, V domains shown) VH: QVQLQQSGPEVVRPGVSVKISCKGSGYTFTDYAMHWVKQSHGKSLEWIGVVLTHNDNTNYNQKFKAKATMTVDRSSSTAYMELARLTSEDSAIYYCAREVYYDFDDGNYFPMDYWGQGTSVTVSS VL: DIVMSQSPSSLAVSVGEKVTMSCKSSQSLLYSDNQKNYLAWYQQKPGQSPKLLIYWASTRESGVPVRFTGSGSGTDFTLTISSVKAEDLAVYYCQQYYSYHTFGGGTKLEIK | – | – | – | – | – | – | 0.0684 | 0.00157 | 2.29e+07 | ~0.007 | ~0.6 | IC50 (hPVRIG-ECD-his [11]): 0.15 nM; PVRIG/PVRL2 blocking Emax (% Inhibition) (hPVRIG-ECD-his [11]): 91.9%; EC50 [12]: 0.05 nM; binding Emax (MFI) [12]: 1180 MFI; EC50 [13]: 0.126 nM; Kd [14]: 0.0684 nM; koff [14]: 0.00157 s⁻¹; kon [14]: 2.29e+07 M⁻¹ s⁻¹

Source: patent publication US20250326842A1 (BEIGENE SWITZERLAND, published 2025)
